Assay results: patent US20240116985A1 (published 2024)
Starred links: 1 amine or outer side, 2 acyl side, 3 side chain; linkers in the order of their positions; H or OH if unused. Positions of bridges follow the written chain, without caps; N, C: chain ends. Non-standard residues stand in square brackets, D forms with d. Primed or numbered codes have the meaning given here. No end group written: not given here. (MeMorphBz)GAbu = (S)-2-amino-4-(N-(carboxymethyl)-4-(morpholinomethyl)benzamido)butanoic acid, O=C(c1ccc(CN2CCOCC2)cc1)N(CC[C@H](N[*:1])C(=O)[*:2])CC(=O)[*:3]; (Pfbn)GA″ = [Pfbn]GA: (S)-2-amino-3-((carboxymethyl)((perfluorophenyl)methyl)amino)propanoic acid, O=C([C@H](CN(CC(=O)[*:3])Cc1c(F)c(F)c(F)c(F)c1F)N[*:1])[*:2]; (4AcMePip)GAbu = (S)-2-amino-4-(N-(carboxymethyl)-1-methylpiperidine-4-carboxamido)butanoic acid, CN1CCC(C(=O)N(CC[C@H](N[*:1])C(=O)[*:2])CC(=O)[*:3])CC1; (Pfbn)GA = (S)-2-amino-3-((carboxymethyl)((perfluorophenyl)methyl)amino)propanoic acid, O=C([C@H](CN(CC(=O)[*:3])Cc1c(F)c(F)c(F)c(F)c1F)N[*:1])[*:2]; PyrS2″ = (S)-3-amino-1-((pent-4-en-1-yloxy)carbonyl)pyrrolidine-3-carboxylic acid (stapling residue), C=CCCCOC(=O)N1CC[C@@](N[*:1])(C(=O)[*:2])C1; (Me2NPr)GAbu = (S)-2-amino-4-(N-(carboxymethyl)-3-(dimethylamino)propanamido)butanoic acid, CN(C)CCC(=O)N(CC[C@H](N[*:1])C(=O)[*:2])CC(=O)[*:3]; (Tfp)GA = [Tfp]GA: (S)-2-amino-3-((carboxymethyl)(3,3,3-trifluoropropyl)amino)propanoic acid, O=C([C@H](CN(CCC(F)(F)F)CC(=O)[*:3])N[*:1])[*:2]; B5(16) = 2-amino-2-(pent-4-en-1-yl)hept-6-enoic acid = 2,2-bis(4-pentenyl)glycine (stitching residue), C=CCCCC(CCCC=C)(N[*:1])C(=O)[*:2]; (Tfp)GA″ = (S)-2-amino-3-((carboxymethyl)(3,3,3-trifluoropropyl)amino)propanoic acid, O=C([C@H](CN(CCC(F)(F)F)CC(=O)[*:3])N[*:1])[*:2]; (Tfb)GA = (S)-2-amino-3-((carboxymethyl)(4,4,4-trifluorobutyl)amino)propanoic acid, O=C([C@H](CN(CCCC(F)(F)F)CC(=O)[*:3])N[*:1])[*:2]; TfeGA = (S)-2-amino-3-((carboxymethyl)(2,2,2-trifluoroethyl)amino)propanoic acid, O=C([C@H](CN(CC(=O)[*:3])CC(F)(F)F)N[*:1])[*:2]; (sBu)GA = [sBu]GA: (2S)-2-amino-3-(sec-butyl(carboxymethyl)amino)propanoic acid, CCC(C)N(CC(=O)[*:3])C[C@H](N[*:1])C(=O)[*:2]; PyrS2 = (S)-3-amino-1-((pent-4-en-1-yloxy)carbonyl)pyrrolidine-3-carboxylic acid, C=CCCCOC(=O)N1CC[C@@](N[*:1])(C(=O)[*:2])C1; (Pic)GAbu = (S)-2-amino-4-(N-(carboxymethyl)picolinamido)butanoic acid, O=C(c1ccccn1)N(CC[C@H](N[*:1])C(=O)[*:2])CC(=O)[*:3]; (Bn)GA″ = [Bn]GA: (S)-2-amino-3-(benzyl(carboxymethyl)amino)propanoic acid, O=C([C@H](CN(CC(=O)[*:3])Cc1ccccc1)N[*:1])[*:2]; (Me)GA″ = [Me]GA: (S)-2-amino-3-((carboxymethyl)(methyl)amino)propanoic acid, CN(CC(=O)[*:3])C[C@H](N[*:1])C(=O)[*:2]; (Et)GA = [Et]GA: (S)-2-amino-3-((carboxymethyl)(ethyl)amino)propanoic acid, CCN(CC(=O)[*:3])C[C@H](N[*:1])C(=O)[*:2]; (Bn)GA = (S)-2-amino-3-(benzyl(carboxymethyl)amino)propanoic acid, O=C([C@H](CN(CC(=O)[*:3])Cc1ccccc1)N[*:1])[*:2]; B5(22) = 2-amino-2-(pent-4-en-1-yl)hept-6-enoic acid (two alkene side chains), C=CCCCC(CCCC=C)(N[*:1])C(=O)[*:2]; (Me)GA = (S)-2-amino-3-((carboxymethyl)(methyl)amino)propanoic acid, CN(CC(=O)[*:3])C[C@H](N[*:1])C(=O)[*:2]; B5(3) = 2,2-bis(4-pentenyl)glycine (stitching residue), C=CCCCC(CCCC=C)(N[*:1])C(=O)[*:2]; B5 = 2-amino-2-(pent-4-en-1-yl)hept-6-enoic acid, C=CCCCC(CCCC=C)(N[*:1])C(=O)[*:2]; Phe(2-Cl) = N[C@@H](Cc1ccccc1Cl)C(=O)O; Bta = N[C@@H](Cc1csc2ccccc12)C(=O)O; Lys(iPr) = CC(C)NCCCC[C@H](N)C(=O)O; αAllylPro = C=CC[C@@]1(C(=O)O)CCCN1; tBuAla = CC(C)(C)C[C@H](N)C(=O)O; 3Thi = N[C@@H](Cc1ccsc1)C(=O)O; Cha = N[C@@H](CC1CCCCC1)C(=O)O; S8 = C=CCCCCCC[C@](C)(N)C(=O)O; PyrS2(4) = not defined here

T1: B-cat-Halo (UniProt P35222 1-781)
T1 sequence (looked up): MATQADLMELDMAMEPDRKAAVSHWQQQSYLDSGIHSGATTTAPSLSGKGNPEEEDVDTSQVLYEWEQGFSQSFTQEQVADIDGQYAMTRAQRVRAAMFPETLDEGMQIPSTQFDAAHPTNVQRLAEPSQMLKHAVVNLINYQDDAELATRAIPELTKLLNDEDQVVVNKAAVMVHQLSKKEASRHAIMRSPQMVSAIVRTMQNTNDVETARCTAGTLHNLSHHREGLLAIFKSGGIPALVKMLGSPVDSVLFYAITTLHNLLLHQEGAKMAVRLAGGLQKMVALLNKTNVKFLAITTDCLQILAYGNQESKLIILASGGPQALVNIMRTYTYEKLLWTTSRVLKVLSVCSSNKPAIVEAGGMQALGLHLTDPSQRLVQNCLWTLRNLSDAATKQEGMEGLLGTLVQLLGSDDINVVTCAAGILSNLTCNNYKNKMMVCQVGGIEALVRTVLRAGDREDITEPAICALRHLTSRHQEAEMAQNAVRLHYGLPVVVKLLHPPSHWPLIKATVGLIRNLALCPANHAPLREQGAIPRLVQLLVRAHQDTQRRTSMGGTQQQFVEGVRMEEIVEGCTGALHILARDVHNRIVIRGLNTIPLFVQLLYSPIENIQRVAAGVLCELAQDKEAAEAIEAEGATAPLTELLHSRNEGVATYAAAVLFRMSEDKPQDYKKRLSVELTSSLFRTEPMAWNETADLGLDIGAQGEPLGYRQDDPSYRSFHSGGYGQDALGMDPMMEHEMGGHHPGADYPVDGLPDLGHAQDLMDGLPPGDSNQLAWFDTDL

T2: B-cat-Halo (UniProt P35222 1-781)
T2 sequence (looked up): T1 sequence (looked up)

T3: B-cat-Halo (UniProt P35222 1-781)
T3 sequence (looked up): T1 sequence (looked up)

B1: I-2248 (peptide)
peptide: Ac-[αAllylPro]D[tBuAla][B5(22)]D[(MeMorphBz)GAbu]AAFL[PyrS2][3Thi][Bta]Q-NH2
modifications: staple 1-4, 4-11
B2: I-2244 (peptide)
peptide: Ac-[αAllylPro]D[tBuAla][B5(22)]D[(Me2NPr)GAbu]AAFL[PyrS2][3Thi][Bta]Q-NH2
modifications: staple 1-4, 4-11
B3: I-2247 (peptide)
peptide: Ac-[αAllylPro]D[tBuAla][B5(22)]D[(Pic)GAbu]AAFL[PyrS2][3Thi][Bta]Q-NH2
modifications: staple 1-4, 4-11
B4: I-2245 (peptide)
peptide: Ac-[αAllylPro]D[tBuAla][B5(22)]D[(4AcMePip)GAbu]AAFL[PyrS2][3Thi][Bta]Q-NH2
modifications: staple 1-4, 4-11
B5: I-1329 (peptide)
peptide: [αAllylPro]D[tBuAla][B5]DDAAFN[PyrS2][Cha][Bta]Q-NH2
modifications: staple 1-4, 4-11
B6: I-1636 (peptide)
peptide: Ac-[αAllylPro]D[tBuAla][B5(3)]D[(Me)GA]AAFN[PyrS2][3Thi][Bta]Q-NH2
modifications: staple 1-4, 4-11; also: earlier eluting staple isomer
B7: I-1624 (peptide)
peptide: Ac-[αAllylPro]D[tBuAla][B5(3)]D[(Pfbn)GA″]AAFN[S8][3Thi][Bta]Q-NH2
modifications: staple 1-4, 4-11
B8: I-1628 (peptide)
peptide: Ac-[αAllylPro]D[tBuAla][B5(3)]D[(Et)GA]AAFN[S8][3Thi][Bta]Q-NH2
modifications: staple 1-4, 4-11; also: later eluting staple isomer
B9: I-1627 (peptide)
peptide: Ac-[αAllylPro]D[tBuAla][B5(3)]D[(Et)GA]AAFN[S8][3Thi][Bta]Q-NH2
modifications: staple 1-4, 4-11; also: earlier eluting staple isomer
B10: I-1615 (peptide)
peptide: Ac-[αAllylPro]D[tBuAla][B5(3)]D[TfeGA]AAFT[PyrS2″][Phe(2-Cl)][Bta][Lys(iPr)]-NH2
modifications: staple 1-4, 4-11
B11: I-1622 (peptide)
peptide: Ac-[αAllylPro]D[tBuAla][B5(3)]D[(Et)GA]AAFN[PyrS2(4)][Phe(2-Cl)][Bta]Q-NH2
modifications: staple 1-4, 4-11; not fully specified; printed as Ac-PL3-Asp-Npg-B5-Asp-[Et]GA-Ala-Ala-Phe-Asn-PyrS2-2C1F-BztA-Gln-NH2; reading uncertain
B12: I-1623 (peptide)
peptide: Ac-[αAllylPro]D[tBuAla][B5(3)]D[(sBu)GA]AAFN[PyrS2″][Phe(2-Cl)][Bta]Q-NH2
modifications: staple 1-4, 4-11
B13: I-1634 (peptide)
peptide: Ac-[αAllylPro]D[tBuAla][B5(3)]D[(Tfb)GA]AAFN[PyrS2][3Thi][Bta]Q-NH2
modifications: staple 1-4, 4-11
B14: I-1630 (peptide)
peptide: Ac-[αAllylPro]D[tBuAla][B5(3)]D[(Bn)GA″]AAFL[PyrS2″][3Thi][Bta]Q-NH2
modifications: staple 1-4, 4-11
B15: I-1637 (peptide)
peptide: Ac-[αAllylPro]D[tBuAla][B5(16)]D[(Me)GA]AAFN[PyrS2(4)][3Thi][Bta]Q-NH2
modifications: staple 1-4, 4-11; not fully specified; printed as Ac-PL3-Asp-Npg-B5-Asp-[Me]GA-Ala-Ala-Phe-Asn-PyrS2-3Thi-BztA-Gln-NH2; reading uncertain
B16: I-1638 (peptide)
peptide: Ac-[αAllylPro]D[tBuAla][B5(16)]D[(Pfbn)GA]AAFN[PyrS2][3Thi][Bta]Q-NH2
modifications: staple 1-4, 4-11
B17: I-1633 (peptide)
peptide: Ac-[αAllylPro]D[tBuAla][B5(3)]D[(Tfp)GA″]AAFL[PyrS2][3Thi][Bta]Q-NH2
modifications: staple 1-4, 4-11
B18: I-1631 (peptide)
peptide: Ac-[αAllylPro]D[tBuAla][B5(3)]D[(Me)GA″]AAFL[PyrS2″][3Thi][Bta]Q-NH2
modifications: staple 1-4, 4-11
B19: I-1635 (peptide)
peptide: Ac-[αAllylPro]D[tBuAla][B5(3)]D[(Bn)GA]AAFN[PyrS2][3Thi][Bta]Q-NH2
modifications: staple 1-4, 4-11
B20: I-1625 (peptide)
peptide: Ac-[αAllylPro]D[tBuAla][B5(3)]D[(Tfp)GA]AAFN[S8][3Thi][Bta]Q-NH2
modifications: staple 1-4, 4-11

What follows are binders tested against T1, B-cat-Halo (assay: cell-based or functional assay).

| NanoBRET Abs IC50 [µM] | Binder |
| --- | --- |
| 21.5 | B1 |
| 27.4 | B2 |
| 5.9 | B3 |
| > 20 | B4 |

These binders were tested against T2, B-cat-Halo (assay: cell-based or functional assay).

| NanoBRET Abs IC50 [µM] | Binder |
| --- | --- |
| 35 | B5 |

Each binder was assayed against T3, B-cat-Halo (assay: cell-based or functional assay).

| NanoBRET Abs IC50 [µM] | Binder |
| --- | --- |
| > 20 | B6 |
| 42.9 | B7 |
| > 20 | B8 |
| > 20 | B9 |
| 8 | B10 |
| > 20 | B11 |
| 27.7 | B12 |
| 16.5 | B13 |
| 5 | B14 |
| > 20 | B15 |
| 14.5 | B16 |
| 5.2 | B17 |
| 30.1 | B18 |
| 20.6 | B19 |
| 29.3 | B20 |
